In the Human Domainome abundance scans (Beltran et al. 2025):
± gives the uncertainty stated by the source.

B1: Pituitary-specific positive transcription factor 1, residues 130 to 198; numbered along this chain, P28069 (parent)
chain: RELEKFANEFKVRRIKLGYTQTNVGEALAAVHGSEFSQTTICRFENLQLSFKNACKLKAILSKWLEEAE

Variants of: B1
Test: abundance fitness (aPCA) (normalised: wild type 0, dead -1); higher = more abundant; growth selection in yeast, the domain comes from the species named
Conditions: Homo sapiens

Variant	abundance fitness
Q21E	-0.549 ± 0.23
Q21L	-0.138 ± 0.048
Q21Y	-0.325 ± 0.081
Q21T	-0.028 ± 0.073
S37P	-0.544 ± 0.099
S37T	-0.063 ± 0.055
S37F	-0.901 ± 0.15
L65F	-0.884 ± 0.25
R1D	-0.187 ± 0.099
R1E	-0.348 ± 0.48
N8T	-0.04 ± 0.1
N8M	-0.027 ± 0.11
N8D	-0.532 ± 0.17
N8P	-0.783 ± 0.37
A59R	-0.059 ± 0.044
A59D	0.094 ± 0.083
A59G	0.059 ± 0.037
E2T	-0.334 ± 0.12
E2Y	-0.651 ± 0.27
F51H	0.077 ± 0.095
F51R	-0.161 ± 0.041

Variant	abundance fitness
F51K	-0.11 ± 0.071
F51Y	0.034 ± 0.06
F51C	-0.534 ± 0.13
F51N	-0.342 ± 0.17
R13P	-0.898 ± 0.27
R13W	-0.733 ± 0.22
G33I	-1 ± 0.26
G33R	-0.835 ± 0.098
C42M	0.311 ± 0.2
C42H	-0.001 ± 0.11
A7G	-0.885 ± 0.16
S62R	-0.377 ± 0.071
S62T	0.014 ± 0.07
S62N	-0.438 ± 0.088
S62Q	0.047 ± 0.066
S62F	-0.059 ± 0.056
G18N	-0.969 ± 0.37
Y19D	-0.696 ± 0.5
V31D	-0.462 ± 0.1
V31L	-0.058 ± 0.039
V31W	-0.392 ± 0.09

Variant	abundance fitness
A27G	-0.739 ± 0.23
A27W	0.053 ± 0.093
E26H	-0.486 ± 0.12
E26Q	-0.527 ± 0.36
E26A	-0.332 ± 0.49
E35G	-0.086 ± 0.043
E35H	-0.228 ± 0.089
E35I	-0.276 ± 0.07
T40M	-0.431 ± 0.38
L17S	-0.738 ± 0.091
F44N	-1.11 ± 0.38
E67L	-0.594 ± 0.097
L28Y	-0.711 ± 0.18
L28P	-0.853 ± 0.4
Q48R	-0.331 ± 0.088
Q48E	-0.003 ± 0.07
Q48D	-0.055 ± 0.066
I15P	-1.03 ± 0.21
I15V	-0.219 ± 0.077
G25N	-0.911 ± 0.38
G25Q	-0.171 ± 0.074

Variant	abundance fitness
G25D	-0.647 ± 0.12
G25F	-0.285 ± 0.18
S50A	-0.307 ± 0.051
S50Y	-0.822 ± 0.29
S50D	0.162 ± 0.093
A29N	-0.595 ± 0.38
A29T	0.063 ± 0.075
F10Q	-0.434 ± 0.12
F10H	-0.762 ± 0.34
F10L	-0.731 ± 0.081
F10M	-0.621 ± 0.2
F10V	-0.649 ± 0.12
T20P	-0.942 ± 0.3
T20I	-0.951 ± 0.17
W64Q	-0.643 ± 0.14
W64F	-0.398 ± 0.11
I41L	-0.541 ± 0.083
F36G	-1.05 ± 0.2
F36W	-0.229 ± 0.082
F36M	-0.31 ± 0.085
